# B1: OR4K15 (parent)
# chain: GUUAACGGUCAUAGGCCAUGGAAACUAGGAGCACCAUUUCGCUGCCAGUGAAGAAAUGAACAAAGAAAAUCUGGGCCAGGCAGGCAUCAAAAGAAAUAGUCUUGCGCUCAACCAGAAAGUCUGUAAUCAUUUUAAGGGUA
# Variants of: B1
# Assay: self-cleavage, relative activity (ratio to wild type); higher = more cleavage; in vitro, sequencing; the parent is a self-cleaving ribozyme
row,Variant,self-cleavage
1,GUUAACGGUCAUAGGCCAUGGAAACUGGGAGCACCAUUUCGCUGCCAGUGAAGAAAUGAACAAAGAAAAUCUGGGCCAGGCAGGCAUCAAAAGAAAUAGUCUUGCGCUCAACCAGAAAGUCUGUAAUCACUUUAAGGGUA [A27G U130C],0.63
2,GUUAACGGUCAUAGGCCAUGGAAACUUGGAGCACCAUUUCGCUGCCAGUGAAGAAAUGAACAGAGAAAAUCUGGGCCAGGCAGGCAUCAAAAGAAAUAGUCUUGCGCUCAACCAGAAAGUCUGUAAUCAUUUUAAGGGUA [A27U A63G],2.61
3,GUUAACGGUCAUAGGCCAUGGAAACUGGGAGCACCAUUUCGCUGCCAGUGAAGAAAUGAACAAAGAAAAUCUGGGCCAGGCAGGCAUCAAAAGAAAUAGUCUUGUGCUCAACCAGAAAGUCUGUAAUCAUUUUAAGGGUA [A27G C105U],0.24
4,GUUAACGGUCAUAGGCCAUGGAAACUGGGAGCACCAUUUCGCUGCCAGUGAAGAAAUGAACAAAGAAAAUCUGGGCCAGGCAGGCAUCAAAAGAAAUAGUCUUGCGCUCAACCAGGAAGUCUGUAAUCAUUUUAAGGGUA [A27G A116G],0.99
5,GUUAACGGUCAUAGGCCAUGGAAACUGGGAGCACCAUUUCGCUGCCAGUGAAGAAAUGAACAAAGAAAAUCUGGGCCAGGCAGGCAUCAAAAGAUAUAGUCUUGCGCUCAACCAGAAAGUCUGUAAUCAUUUUAAGGGUA [A27G A95U],1.2
6,GUUAACGGUCAUAGGCCAUGGAAACUGGGAGCACCAUUUCGCUGCCAGUGAAGAAAUGAACAAAGAAAAUCUGGGCCAGGCAGGCAUCAAAUGAAAUAGUCUUGCGCUCAACCAGAAAGUCUGUAAUCAUUUUAAGGGUA [A27G A92U],1.07
7,GUUAACGGUCAUAGGCCAUGGAAACUGGGAGCACCAUUUCGCUGCCAUUGAAGAAAUGAACAAAGAAAAUCUGGGCCAGGCAGGCAUCAAAAGAAAUAGUCUUGCGCUCAACCAGAAAGUCUGUAAUCAUUUUAAGGGUA [A27G G48U],0.5
8,GUUAACGGUCAUAGGCCAUGGAAACUGAGAGCACCAUUUCGCUGCCAGUGAAGAAAUGAACAAAGAAAAUCUGGGCCAGGCAGGCAUCAAAAGAAAUAGUCUUGCGCUCAACCAGAAAGUCUGUAAUCAUUUUAAGGGUA [A27G G28A],0.78
9,GUUAACGGUCAUAGGCCAUGGAAACUGGGAGCACCAUUUCGCUGCCAGUGAAGAAAUGAACAAAGAAAAUCUGGGCCAGGCAGGCAUCAAAAGAAAUAGUCUUGCGCUCAGCCAGAAAGUCUGUAAUCAUUUUAAGGGUA [A27G A111G],0.03
10,GUUAACGGUCAUAGGCCAUGGAAACUGGGAGCACCAUUUCGCUGCCAGUGAAGAAAUGAACAAAGAAAAUCUGGGCCAGGCAGGCAUCAAAAGGAAUAGUCUUGCGCUCAACCAGAAAGUCUGUAAUCAUUUUAAGGGUA [A27G A94G],1.48
11,GUUAACGGUCAUAGGCCAUGGAAACUGGGAGCACCAUUUCGCUGCCAGUGAAGAAAUGAACAAAGAAAAUCUGGGCCAGGCAGGCAUCAAAAGAAAUAGUCUUGCGCUCAACCAGAAAGUCUGUAAUCAUCUUAAGGGUA [A27G U131C],1.67
12,GUUAACGGUCAUAGGCCAUGGAAACUGGGAGCACCAUUUCGCUGCCAGUGAAGAAAUGAACAAAGAAAAUCUGGGCCAGGCAGGCAUCAAAAGAAAUAGUCUUGCGCUCAACCAGAAAGUCUGUAACCAUUUUAAGGGUA [A27G U127C],0.56
13,GUUAACGGUCAUAGGCCAUGGAAACUGGGAGCACCAUUUCGCUGCCAGUGAAGAAAUGAACAAAGAAAAUCUGGGCCAGGCAGGCAUCAAAAGAAAUAGUCUUGCGCUCAACCAGAAAGUCUGUAAACAUUUUAAGGGUA [A27G U127A],1.58
14,GUUAACGGUCAUAGGCCAUGGAAACUUGGGGCACCAUUUCGCUGCCAGUGAAGAAAUGAACAAAGAAAAUCUGGGCCAGGCAGGCAUCAAAAGAAAUAGUCUUGCGCUCAACCAGAAAGUCUGUAAUCAUUUUAAGGGUA [A27U A30G],0.38
15,GUUAACGGUCAUAGGCCAUGGAAACUGGGAGCACCAUCUCGCUGCCAGUGAAGAAAUGAACAAAGAAAAUCUGGGCCAGGCAGGCAUCAAAAGAAAUAGUCUUGCGCUCAACCAGAAAGUCUGUAAUCAUUUUAAGGGUA [A27G U38C],1.12
16,GUUAACGGUCAUAGGCCAUGGAAACUUGGAGCACCAUUUCGCUGCCAGUGAAGAAAUGAACAAAGAAAAUCUGGGCCAGGCAGGCGUCAAAAGAAAUAGUCUUGCGCUCAACCAGAAAGUCUGUAAUCAUUUUAAGGGUA [A27U A86G],1.43
17,GUUAACGGUCAUAGGCCAUGGAAACUGGGAGCACCAUUUCGCUGCCAGUGAAGAAAUGAACAAAGAAAAUCUGGGCCAAGCAGGCAUCAAAAGAAAUAGUCUUGCGCUCAACCAGAAAGUCUGUAAUCAUUUUAAGGGUA [A27G G79A],0.15
18,GUUAACGGUCAUAGGCCAUGGAAACUUGGAGCACCGUUUCGCUGCCAGUGAAGAAAUGAACAAAGAAAAUCUGGGCCAGGCAGGCAUCAAAAGAAAUAGUCUUGCGCUCAACCAGAAAGUCUGUAAUCAUUUUAAGGGUA [A27U A36G],1.64
19,GUUAACGGUCAUAGGCCAUGGAAACUGGGAGCACCAUUUCGCUGCCAGUGAAGAAAUGAACAAAGAAAAUCUGGGCCAGGCAGGCAUCAAAAGAAUUAGUCUUGCGCUCAACCAGAAAGUCUGUAAUCAUUUUAAGGGUA [A27G A96U],1.83
20,GUUAACGGUCAUAGGCCAUGGAAACUGGGAGCACCAUUUCGCUGCCAGUGAAGAAAUGAACAAAGAAAAUCUGGGCCAGGCAGGCAUCAAAAGAAAUAGUCUUGCGCUCAACCAGAAAGUCUGUAAUCAUUUGAAGGGUA [A27G U133G],2.02
21,GUUAACGGUCAUAGGCCAUGGAAACUUGGAGCACCAUUUCGCUGCCAGUGAGGAAAUGAACAAAGAAAAUCUGGGCCAGGCAGGCAUCAAAAGAAAUAGUCUUGCGCUCAACCAGAAAGUCUGUAAUCAUUUUAAGGGUA [A27U A52G],1.91

row,Variant,self-cleavage
1,GUUAACGGUCAUAGGCCAUGGAAACUUGGAGCACCAUUUCGCUGCCAGUGAAGAAAUGAACAAUGAAAAUCUGGGCCAGGCAGGCAUCAAAAGAAAUAGUCUUGCGCUCAACCAGAAAGUCUGUAAUCAUUUUAAGGGUA [A27U A64U],2.21
2,GUUAACGGUCAUAGGCCAUGGAAACUGGGAGCACCAUUUCGCUGCCAGUGAAGAAAUGAACAAAGAAAAUCUGGGCCAGGCAGGCAUCAAAAGAAAUAGUCUUGCGCUCAACCAGAAAGUCUGUAAUCAUUUUGAGGGUA [A27G A134G],1.86
3,GUUAACGGUCAUAGGCCAUGGAAACUGGGAGCACCAUUUCGCUGCCAGUGAACAAAUGAACAAAGAAAAUCUGGGCCAGGCAGGCAUCAAAAGAAAUAGUCUUGCGCUCAACCAGAAAGUCUGUAAUCAUUUUAAGGGUA [A27G G53C],1.59
4,GUUAACGGUCAUAGGCCAUGGAAACUGGGAGCACCAUUUCGCUGCCAGUGAAGAAAUGAACAAAGAAAAUCUGGGCCAGGCAGGCAUCAAAAGAAAUAGUCAUGCGCUCAACCAGAAAGUCUGUAAUCAUUUUAAGGGUA [A27G U102A],0.63
5,GUUAACGGUCAUAGGCCAUGGAAACUGGGAGCACCAUUACGCUGCCAGUGAAGAAAUGAACAAAGAAAAUCUGGGCCAGGCAGGCAUCAAAAGAAAUAGUCUUGCGCUCAACCAGAAAGUCUGUAAUCAUUUUAAGGGUA [A27G U39A],1.42
6,GUUAACGGUCAUAGGCCAUGGAAACUGGGAGCACCAUUCCGCUGCCAGUGAAGAAAUGAACAAAGAAAAUCUGGGCCAGGCAGGCAUCAAAAGAAAUAGUCUUGCGCUCAACCAGAAAGUCUGUAAUCAUUUUAAGGGUA [A27G U39C],1.14
7,GUUAACGGUCAUAGGCCAUGGAAACUGGGAGCACCAUUUCGCUGCCAGUGAAGAAAUGAACAAAGAAAAUCCGGGCCAGGCAGGCAUCAAAAGAAAUAGUCUUGCGCUCAACCAGAAAGUCUGUAAUCAUUUUAAGGGUA [A27G U72C],0.38
8,GUUAACGGUCAUAGGCCAUGGAAACUGGGAGCACCAUUUCGCUGCCAGUGAAGAAAUGAACAAAGAAAAUCUGGGCCAGGCAGGCAUCAAAAGAAAUAGUCUUGCGCUCAACCAGAAAGUCCGUAAUCAUUUUAAGGGUA [A27G U122C],1.45
9,GUUAACGGUCAUAGGCCAUGGAAACUGGGAGCACCAUUUCGCUGCCAGUGAAGAAAUGAACAAAGAAAAUCUGGGCCAGGCAGGCAUCAAAAGAAAUAGUCUUGCGCUCAACCAGAAAGUCAGUAAUCAUUUUAAGGGUA [A27G U122A],1.47
10,GUUAACGGUCAUAGGCCAUGGAAACUGGGAGCACCAUUUCGCUGCCAGUGAAGAAAUGAACAAAGAAAAUCUGGGCCAGGCAGGCAUCAAAAGAAAUAGUCUUGCGCUCAACCAGAAAGUCUGUAAUCAUUUUAAGGGAA [A27G U139A],1.27
11,GUUAACGGUCAUAGGCCAUGGAAACUGGGAGCACCAUUUCGCUGCCAGAGAAGAAAUGAACAAAGAAAAUCUGGGCCAGGCAGGCAUCAAAAGAAAUAGUCUUGCGCUCAACCAGAAAGUCUGUAAUCAUUUUAAGGGUA [A27G U49A],0.93
12,GUUAACGGUCAUAGGCCAUGGAAACUGGGAGCACCAUUUCGCUGCCAGCGAAGAAAUGAACAAAGAAAAUCUGGGCCAGGCAGGCAUCAAAAGAAAUAGUCUUGCGCUCAACCAGAAAGUCUGUAAUCAUUUUAAGGGUA [A27G U49C],2.01
13,GUUAACGGUCAUAGGCCAUGGAAACUGGGAGCACCAUUUCGCUGCCAGUGAAGAAAUGAACAAAGAAAAUCUGGGCCAGGCAGGCACCAAAAGAAAUAGUCUUGCGCUCAACCAGAAAGUCUGUAAUCAUUUUAAGGGUA [A27G U87C],1.02
14,GUUAACGGUCAUAGGCCAUGGAAACUGGGAGCACCAUUUCGCUGCCAGUGAAGAAAUGAACAAAGAAAAUCUGGGCCAGGCAGGCAACAAAAGAAAUAGUCUUGCGCUCAACCAGAAAGUCUGUAAUCAUUUUAAGGGUA [A27G U87A],1.39
15,GUUAACGGUCAUAGGCCAUGGAAACUUGGAGCACCAUUUCGCUGCCAGUGAAGAAAUGGACAAAGAAAAUCUGGGCCAGGCAGGCAUCAAAAGAAAUAGUCUUGCGCUCAACCAGAAAGUCUGUAAUCAUUUUAAGGGUA [A27U A59G],0.92
16,GUUAACGGUCAUAGGCCAUGGAAACUGGGAGCACCAUUUCGCUGCCAGUGAAGAAAUGAACAAAGAAAAUCUGGGCCAGGCAGGCAUCAAAAGAAAUAGUCUUGCGCUCAACCAGAAAGUCUGUAAUCUUUUUAAGGGUA [A27G A129U],0.72
17,GUUAACGGUCAUAGGCCAUGGAAACUUGGAGCACCAUUUCGCUGCCAGUGAAGAAAUGAACAAAGAAGAUCUGGGCCAGGCAGGCAUCAAAAGAAAUAGUCUUGCGCUCAACCAGAAAGUCUGUAAUCAUUUUAAGGGUA [A27U A68G],1.61
18,GUUAACGGUCAUAGGCCAUGGAAACUGGGAGCACCAUUUCGCUGCCAGUGAAGAAAUGAACAAAGAAAAUCUGGGCCAGGCAGGCAUCAAAAGAAAUAGUCUUGCGCUCAACCGGAAAGUCUGUAAUCAUUUUAAGGGUA [A27G A114G],0.27
19,GUUAACGGUCAUAGGCCAUGGAAACUGGGAGCACCAUUUCGCUGCCAGUGAAGAAAUGAACAAAGAAAAUCUGGGCCAGGCAGGCAUCAAAAGAAAUAGUCUCGCGCUCAACCAGAAAGUCUGUAAUCAUUUUAAGGGUA [A27G U103C],0.76
20,GUUAACGGUCAUAGGCCAUGGAAACUGGGAGCACCAUUUCGCUGCCAGUGAAGAAAUGAACAAAGAAAAUCUGGGCCAGGCAGGCAUCAAAAGAAAUAGUCUUGCGCUCAACCAGAAAGCCUGUAAUCAUUUUAAGGGUA [A27G U120C],0.68

# Reference: the RNAGym collection of RNA variant scans (doi:10.7554/elife.90254)
